Measured values from EP3466970A1 (Orum Therapeutics Inc., dated 2019).

Biological target: T1, mCherry (red fluorescence) H-RAS G12V expressed in NIH3T3 cells (UniProt P01112 1-186, limits assumed)
T1 construct: Intracellular target at the inner cell membrane; also called intracellular H-RAS G12V mutants
Experiment: confocal microscopy, colocalisation in NIH3T3 cells expressing mCherry H-RAS G12V

B1: cytosol-penetrating antibody (cytotransmab) TMab4 (antibody, V domains shown)
VH: EVQLVESGGGLVQPGGSLRLSCAASGYTFTSYVMHWVRQAPGKGLEWVSAINPYNDGNYYADSVKGRFTISRDNSRKTLYLQMNSLRAEDTAVYYCARGAYKRGYAMDYWGQGTTVTVSS
VL: DLVMTQSPSSLSASVGDRVTITCKSSQSLFNSRTRKNYLAWYQQKPGKAPKLLIYWASTRESGVPSRFSGSGSGTDFTLTISSLQPEDFATYYCQQYYYHMYTFGQGTKVEIKR
notes: Intact IgG-format monoclonal antibody; Used as negative control in the RAS assays; also called CT
B1: no binding (tested: 2 µM).
